Target: human Mdm2 (1-125) (human)
Assay: fluorescence polarisation

Sequence of human Mdm2 (1-125) (human) (Q00987 1-125): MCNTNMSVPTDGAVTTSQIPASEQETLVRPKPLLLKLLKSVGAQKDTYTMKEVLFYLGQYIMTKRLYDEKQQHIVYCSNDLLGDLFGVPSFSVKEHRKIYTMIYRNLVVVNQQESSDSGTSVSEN

Substance	Kd
MP-444: Ac-K(N3)-TF(X)EYWAQ(Cba)(X)EAFAAF-NH2 (peptide)	1.5 nM
MP-793 (all-D di-alkyne stapled analog of ^dPMI-δ(5-12 staple)) (peptide)	< 1 nM
azide-ATSP-7041 (L1D, E5D, A8D) (peptide)	5 nM
azide-ATSP-7041 (L1N, E5N, A8N, S12N, A13N, A14N) (peptide)	15 nM
azide-ATSP-7041 (MP-081) (peptide)	5 nM
azide-ATSP-7041 (MP-081) E5P (peptide)	7800 nM
azide-ATSP-7041 (MP-081) with Cba10 substituted with Ala (peptide)	115 nM
azide-ATSP-7041 (MP-081) with Cba10 substituted with Leu (peptide)	56 nM
